# ± gives the uncertainty stated by the source.
# Assay: self-splicing fitness, log relative to wild type (ln ratio); higher = more splicing; Tetrahymena group I intron in knt gene, E. coli kanamycin selection, DiMSum; sequences stand for … in CUCUCU…GGAGGGAAAAGUUAUCAGGCAUGCACCUGGUAGCUAGUCUUUAAACCAAUAGAUUGCAUCGGUUUAAAAGGCAAGACCGUCAAAUUGCGGGAAAGGGGUCAACAGCCGUUCAGUACCAAGUCUCAGGGGAAACUUUGAGAUGGCCUUGCAAAGGGUAUGGUAAUAAGCUGACGGACAUGGUCCUAACCACGCAGCCAAGUCCUAAGUCAACAGAUCUUCUGUUGAUAUGGAUGCAGUUCACAGACUAAAUGUCGGUCGGGGAAGAUGUAUUCUUCUCAUAAGAUAUAGUCGGACCUCUCCUUAAUGGGAGCUAGCGGAUGAAGUGAUGCAACACUGGAGCCGCUGGGAACUAAUUUGUAUGCGAAAGUAUAUUGAUUAGUUUUGGAGUACUCGUGGUCG
# How it was run: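 Pooled colonies went to amplicon sequencing on an Illumina HiSeq 2500 after six replicate transformations. The plates were LB agar with 100 μg/mL carbenicillin, 50 μM IPTG and 0.2% rhamnose, with or without 25 μg/mL kanamycin, incubated overnight at 37°C or 30°C. The E. coli BL21(DE3) library had all eight P1ex-region intron nucleotides randomised, the intron placed in the knt kanamycin-resistance gene on pET-22b(+). DiMSum fitness is the error-weighted combination of replicate fold changes, kanamycin against none, normalised to wild type.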
Sequence,self-splicing fitness (ln) (30 °C),self-splicing fitness (ln) (37 °C)
AGAUAGCAAUAUUACGGGCG,-1.16 ± 0.14,0.433 ± 0.15
AGAUAGCAAUAUUACGGUAU,-1.43 ± 0.098,-0.614 ± 0.1
AGAUAGCAAUAUUACGGUCG,-0.105 ± 0.12,-0.324 ± 0.15
AGAUAGCAAUAUUACGGUUU,-0.692 ± 0.055,-0.341 ± 0.076
AGAUAGCAAUAUUACGUACU,-0.357 ± 0.15,-0.0062 ± 0.15
AGAUAGCAAUAUUACGUAGA,-3.03 ± 0.15,-1.77 ± 0.16
AGAUAGCAAUAUUACGUGGC,-3.18 ± 0.23,-2.86 ± 0.32
AGAUAGCAAUAUUACGUUUU,-2.35 ± 0.09,-1.68 ± 0.1
AGCAAGCAAUAUUACGAAAA,-3.39 ± 0.19,-2.39 ± 0.18
AGCAAGCAAUAUUACGACCA,-0.697 ± 0.09,-0.178 ± 0.12
AGCAAGCAAUAUUACGAGAU,-3.64 ± 0.24,-1.27 ± 0.21
AGCAAGCAAUAUUACGAGCC,-1.65 ± 0.37,
AGCAAGCAAUAUUACGAUGG,-2.63 ± 0.15,-2.01 ± 0.2
AGCAAGCAAUAUUACGCACC,-0.646 ± 0.14,0.533 ± 0.18
AGCAAGCAAUAUUACGCAGA,-2.73 ± 0.22,-2.05 ± 0.18
AGCAAGCAAUAUUACGCAGG,-2.95 ± 0.16,-1.63 ± 0.12
AGCAAGCAAUAUUACGCAGU,-3.01 ± 0.18,-1.28 ± 0.14
AGCAAGCAAUAUUACGCCAC,-3.17 ± 0.28,-3.33 ± 0.28
AGCAAGCAAUAUUACGCUGG,-4.34 ± 0.41,-2.95 ± 0.26
AGCAAGCAAUAUUACGCUUG,-4.25 ± 0.28,-1.29 ± 0.2
AGCAAGCAAUAUUACGGAGC,-2.67 ± 0.19,-1.31 ± 0.24
AGCAAGCAAUAUUACGGCGC,-0.695 ± 0.095,0.164 ± 0.16
AGCAAGCAAUAUUACGGGAA,-2.65 ± 0.14,-1.03 ± 0.1
AGCAAGCAAUAUUACGGGUG,-1.36 ± 0.056,-0.789 ± 0.076
AGCAAGCAAUAUUACGUAAU,-1.99 ± 0.1,-1.27 ± 0.12

Sequence,self-splicing fitness (ln) (30 °C),self-splicing fitness (ln) (37 °C)
AGCAAGCAAUAUUACGUGGU,-2.79 ± 0.12,-3.13 ± 0.18
AGCAAGCAAUAUUACGUUGC,-3.69 ± 0.19,-1.08 ± 0.16
AGCCAGCAAUAUUACGACAU,-1.512 ± 0.012,-0.664 ± 0.032
AGCCAGCAAUAUUACGACCC,-1.46 ± 0.34,-0.503 ± 0.24
AGCCAGCAAUAUUACGACGA,-1.97 ± 0.1,-1.76 ± 0.12
AGCCAGCAAUAUUACGAGCU,-3.38 ± 0.21,-3 ± 0.35
AGCCAGCAAUAUUACGCAAC,-4.16 ± 0.32,-1.4 ± 0.23
AGCCAGCAAUAUUACGCACA,-1.96 ± 0.13,-0.518 ± 0.11
AGCCAGCAAUAUUACGCAGC,,-1.21 ± 0.28
AGCCAGCAAUAUUACGCAUU,-1.65 ± 0.062,-1.25 ± 0.075
AGCCAGCAAUAUUACGCCAC,,-3.04 ± 0.43
AGCCAGCAAUAUUACGCCGA,,-0.449 ± 0.29
AGCCAGCAAUAUUACGCUAC,-2.52 ± 0.18,-0.749 ± 0.17
AGCCAGCAAUAUUACGGAAG,-1.57 ± 0.1,0.171 ± 0.12
AGCCAGCAAUAUUACGGCCG,-1.29 ± 0.11,-0.262 ± 0.13
AGCCAGCAAUAUUACGGCUG,-2.52 ± 0.17,-1.53 ± 0.2
AGCCAGCAAUAUUACGGGAG,-2.56 ± 0.11,-2.17 ± 0.14
AGCCAGCAAUAUUACGGUUG,-0.979 ± 0.051,-0.86 ± 0.075
AGCCAGCAAUAUUACGUAAA,-3.03 ± 0.12,-1.55 ± 0.13
AGCCAGCAAUAUUACGUACA,-3.16 ± 0.22,-2.5 ± 0.27
AGCCAGCAAUAUUACGUCUU,-1.23 ± 0.072,-0.744 ± 0.089
AGCCAGCAAUAUUACGUGAU,-2.31 ± 0.075,-1.35 ± 0.098
AGCCAGCAAUAUUACGUGUA,-3.52 ± 0.14,-1.34 ± 0.11
AGCCAGCAAUAUUACGUUAC,-4.34 ± 0.31,-1.88 ± 0.21
